In the nanobody polyreactivity screen of Harvey et al. (2022):

Assay: yeast display, Sf9 membrane polyspecificity reagent, FACS + sequencing; frameworks hold sequencing errors
Procedure, shortened: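 After 36–48 hours of galactose induction, yeast (Saccharomyces cerevisiae BJ5465) displaying a synthetic nanobody library were stained at 4 °C for 1 hour with 10% biotinylated, detergent-solubilized Sf9 membrane reagent. Streptavidin microbeads enriched the stained cells before FACS sorting into low and high (top ~1%) gates on anti-HA and streptavidin fluorescence. Each clone's polyreactivity label reflects its gate of origin.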

| Sequence | polyreactivity (PSR sort gate) |
| --- | --- |
| QVQLVESGGGLVQAGGSLRLSCAASGSTFVIYAMGWYRQAPGKERELVATITSGGSTYYADSVKGRFTISRDNAKNTVYLQMNSLKPEDTAVYYCAADDWGWPFYYYDDPMDYWGQGTQVTVSS | high polyreactivity |
| QVQLVESGGGLDQAGGSLRLSCAASGRTFNPYVLGWYRQAPGKERELVAVITSSGDSTYYADSVKGRFTISRDNAKNTVYLQMNSLKPEDTAVYYCNADYLYYDYDYWGQGTQVTVSS | high polyreactivity |
| QVQLVESGGGLVQAGGRLRLSCAASGLTFGWYTMGWYRQAPGKERELVADITWSGGSTYYADSVKGRFTISRDNAKNTVYLQMNSLKPEDTAVYYCNKVWFYLEYGFSILYDYWGQGTQVTVSS | low polyreactivity |
| QDQLVESGGGLDQAGGSLRLSCAASGGTFKVNAMGWYRQAPGKEREFVAAISSGGSTYYADSVKGRFTISRDNAKNTVYLQINSLKPEDTAVYYFAASGAYDEAYGEAFYYWGQGTQVIVSS | low polyreactivity |
| QVQLVESGGGLVQAGGSLRLSCAASGRIFVSYAMGWYRQAPGKERELVAAISNSGSRTYYADSVKGRFTISRDNAKNTVYLQMNSLKPEDTAVYYCAAGQGAGVDYWGQGTQVTVSS | high polyreactivity |
| QVQLVESGGGLVQAGGSLRLSCAASGSILYYNAMGWYRQAPGKERELVAAITSGGSTYADSVKGRFTISRDNAKNTVYLQMNSLKPEDTAVYYCAADLDWYLSDYGTSLEHDYWGQGTQVTVSS | low polyreactivity |
| QVHLVESGGGLVQAGGSLRLSCAASGFTFRDYAMGWYRQAPGKERELVAAIDIGTTTYYADSVKGRFTISRDNAKNTVYLQMNSLKPEDTAVYYCAAYSFASVYFGTGYDYWGQGTQVTVSS | low polyreactivity |
| QVQHVESGGGLVQAGGSHRLSCAASGSIYWWNAMGWYRQAPGKERELVAAISFSGGSTYYADSVKGRFTISRDNAKNTVYLQMNSLKPEDTAVYYCAAEAYDDYDYWGQGTQVTVSS | low polyreactivity |
| QVQLVESGGGLVQAGGSLRLSCAASGRIFKGNAMGWYRQAPGKEREFVADISQRGGSTYYADSVKGRFTISRDNAKNTVYLQMNSLKPEDTAVYYCAAVRKSVGVKYDYWGQGTQVTVSS | high polyreactivity |
| QVQLVESGGGLVQAGGSLRLSCAASGSTFRWYGMGWYRQAPGKERELVAVITRGGSTYYADSVKGRFTISRDNAKNTVYLQMNSLKPEDTAVYYCARVRGPNNAFYLGSTYGYWGQGTQVTVSS | high polyreactivity |
| QVQLVESGGGLVKAGGSLRLSCAASGSTFRYYVMGWYRQAPGNERELVAAISRGGRTYYADSVKGRFTISRDNAKYSVYLQMNSLKPEDTAVYYCAVDYIVQSGSRIAGDYWGQGTQVTVSS | high polyreactivity |
| QVQLVESGGGLVQAGGSLRLSCAASGSIFAGNVMGWYRQAPGKERELVAAISRRGGRTYYADSVKGRFTISRDNAKNTVYLQMNSLKPEDTAVYYCAARRDPVLGNSDFWGQGTQVTVSS | high polyreactivity |
| QVQLVESGGGLVQAGGILRLSFAASGSTFYPNTMGWYRQAPGKERELVAAITNGGSTNYADSVKGRFTIARDNAKNTVYLQMNSLKPEDTAVYDCAADGYDQWGRDVVYLIWTSYDYWGQGTQVTVSS | high polyreactivity |
| QVQLVESGGGLVQAGGSLRLSCAASGFIFYRYAMGWYRQAPGKERELVAAISSSGGSTYYADSVKGRFTISRDNAKNTVYLQMNSLKPEDTAVYYCAAEPSGKRSKFYYWGQGTQVTVSS | high polyreactivity |
| QVQLVESGGGLVQAGGSLRLSCAASGSIFGWNAMGWYRQAPGKERELVAAINWTGGTTYYADSVKGRFTISRDNEKNTVYLQMNSLKPEDTAVYYCAARLTYHVAGQMTRYYYWGQGTQVTVSS | low polyreactivity |
| QVQHVESGGGLVQAGGSLRLSCAASGFIFRWYAMGWYRQAPGKERELVAAITTSGGITYYADSVKGRFTISRDNAKNTVYLQMNSLKPEDTAVYYCNRSPWYGPWHPNSFGSGDYWGQGTQVTVSS | low polyreactivity |
| QVQLVESGGGLVQEGGSLRLSCAASGIIFGYNAMGWYRQAPGKERELVAAISRRGGTTYYADSVKGRLTISRDNSKNTVYLQMNSLKPEDTAVYYCAAQWSPTEHEYNYSGQGTQVTVSS | low polyreactivity |
| QVQLVESGGGLVQAGGSLRLSCAASGIIFSEYAMGWYRQAPGKERELVAAISKSGGRTYYADSVKGRFTISRDNAKNTVYLQMNSLKPEDTAVYYCAARHAPILGDHGDYDYWGQGTQVTVSS | high polyreactivity |
| QDQLVESGGGLVQAGGSLRLSCAASGSIFSYYAMGWYRQAAGKERELVAAINDGGGSTYYADSVKGRFTISRDNAKNTVYLQMNSLKPEDTAVYYCAAEWSWGPYRYDYWGQGTQVTVSS | high polyreactivity |
| QVQLVESGGGLVQAGGSLRLSCAASGFIFGVNAMGWYRQAPGKERELVAAITSTGGRTYYADSVKGRFTISRDNAKNTVYLQMNSLKPEDTAVYYCNKRYRDQYGYDYWGQGTQVTVSS | high polyreactivity |
| QVQLVESGGGLVQAGGSLRLSCAASGLTFLFYAMGWYRQAPGKERELVASIRWSDGRTYYADSVKGRFTISRDNAKNTVYLQMNSLKPEDTAVYYCAVVPAYVYLNREYYWGQGTQVTVSS | high polyreactivity |
| QVQLVESGGGLVQAGGSLRLSCAASGLIFGSNAMGWYRQAPGKERELVAAISSGGTTKYADSVKGRFTISRDNAKNTVYLQMNSLKPEDTAVYYCAAQDYSYTTRFQDDYWGQGTQVTVSS | low polyreactivity |

| Sequence | polyreactivity (PSR sort gate) |
| --- | --- |
| QVQLVESGGGLVQAGGSLRLSCAASGGIFKYYAMGWSRQAPGTERELVAAITSGGNTNYAESVKGRFTISRDNAKNTVYLQMNSQKPEDTAVYYCSARSISRRTWQYNYWGQGTQVTVSS | high polyreactivity |
| QVQLVESRGGLVQAGGSLRLSCAASRSTFGVNAMGWYRQAPGKERELVARISSGVRTYYADSVKGRFTISRDNAKNTVYLQMNSMIPEDTAVYYCAAVYFRGVDRAFLSYSYYYWGQGTQVTVSS | high polyreactivity |
| QVQLVESGGGLVQAGGSLRLSCAASGSIFGRYVMGWYRQAPGKERELVAAISTSGDSTYYADSVKGRFTISRDNAKNTVYLQMNSLKPEDTAVYYCNARKRTFPSRSIGGDYWGQGTQVTVSS | high polyreactivity |
| QVQLVESGGGLVQAGGSLRLSCAASGSIYGPYAMGWYRQAPGKERELVAAIAESSGSTYYADSVKGRFTISRDNAKNTVYLQMNRMKPEDTAVYYCAAEQITGWSWVWGSWYDYWGQGTQVTVSS | low polyreactivity |
| QVQLVESGGGLVQAGGSLRLSCAASGFTFSNYAMGWYRQAPGKEREFVAAISGTGGSTYYADSVKGRFTISRDNAKNTVYLQMNSLKPEDTAVYYCARRRTYPPGRYYYWGQGTQVTVSS | high polyreactivity |
| QVQLEESGGGLVQAGGSLRLSCASYGRIFPFYALGWYRQAPRKERELVARISRRGGSTYYADSVKGRFTISRDNAKNNVYLQMNSLKPEDTAVYYCASSQAVYDGWYAKFGYWGQGTQVTVSS | low polyreactivity |
| QVQLVESGGRLLQAGGSLRLSCAASGRIIGLYAMGWYRPAPGKEWEFVAAINWDGGSTFYADSVKGRFTISRDNAKNSVYLQMNSLQPEDTAVYYCAADVYSYVSNCTYVSVFTYDYWGHGTQVTVSS | low polyreactivity |
| QVQLVESGGGLVQAGGSLRLSCAASGRTFKTYAMVWYRQAPGKERELVAAISRDGRTYYADSVKGRFTISRDNAKNTVYLQMNSLKPEDTAVYYCNKRSYRNGDYWGQGTQVTVSS | low polyreactivity |
| QVQLVESGGGLVQAGGSLRLSCSASGITFNANAMGWYRQATGKERELVAAISLSGGRTYYADSVKGRFTISRDNAKNTVYLQMNSLKPEDTAVYYCKVLGNYYGKFDYWGQGTQVTVSS | high polyreactivity |
| HVQLVESGGGLVQAGGSLRLSCAASGSTLWYNAMGWNRQAPGKERELVAVITWTGGSTYYADSVKGRFTISRDNAKNTVYLQMNSLKPEDTAVYYCAVRWYFGNRYKYYYWGQGTQVTVSS | high polyreactivity |
| QVQLVESGGGLVQAGGSLRLSCAASGRIFRIYGMGWYRQAPGKERELVADISIGGRTTYADSVKGRFTISRDNAKNTVYLQMNSLKPEDTAVYYCKTPYWYRIGQRLAWYDYWGQGTQVTVSS | low polyreactivity |
| QVQLVESGGGLVQAGGSLRLSCAASGSIFSSYAMGWYRPAPGNERELVAAISKSGGSTYYADSVKGRFTISRDNAKNTVYLQMNSLKPEDTAVYYCAARTRQLEYNSWGQGTQVTVSS | high polyreactivity |
| QVQLVESGGGLVQAGGSLRLSCAASRRIFYAYAMGWYRQAPGKEIELLATITGIGGSTYADSVKGRFTISRDNAKNTVNLQMNSLKPEDTAVYYCNAERGVYWGRYPYKYDYLGQGTQVTVSS | low polyreactivity |
| QVQLVESGGGLVQAGGSLRLSSASSGSTSWIYAMGWYRPEPGKERELVAAISGRDGSTNYADSVKGRFTISRDNAKNTVYLQMIRVKPEDTAVYDCNATGRSFKRYGGDYWGQGTQVTVSS | high polyreactivity |
| QVQLVESGGGLVQAGGSLRLSCAASGIIFGGYAMGWYRQAHGKERELVARITSGGSTNYADSVKGRFTISRDNAKNTVYLQMNSLKPEDTAVYYCNARGGWSWRFYYWGQGTQVTVSS | high polyreactivity |
| QVQLVESGGGLVQAGGSLRLSCAASGGTFGYNAMGWYRQAPGKERELVAAISYTGDSTYYADSVKGRFTISRDNAKNTVDLQMNSLKPEDTAVYYCAASVYYYRYNYWGQATQVTVSS | low polyreactivity |
| QVQLVESGGGLVQAGGSLRLSCAASGRTFDGYAMGWYRPAPGKERELVAAISWGGGSTYYADSVKGRFTISRDNAKNTVYLQMNSLKPEDTAVYYCNAYTYYYGNDYWGQGTQVNVSS | high polyreactivity |
| QVQLVESGGGLVQAGGSLRISCAASGFIFDPYAMGWYRQAPGKERELVASINTRGDRTSYADSVKGRFTISRDNAKNTVYLQMNSLKPEDTAVYYCNADAVDQVGPDDDYWGQGTQVTVSS | low polyreactivity |
| QVQLVESAGGLVQAGGSLRLSCAASGTFYYYAMGWYRQAPGKERELVAAISNGDSTTYADSVKGRFTISRDNAKNTVYLQMNSLNPEDTAVYYCAAYRYTPRTSRGYYYWGQGTQVTVSS | low polyreactivity |
| QVQLVESGGGLVQAGGSLRLSCAASGYTLSVNAMGWYRQAPGKERELVATIDFGGGSTYYADSVKGRFTISRDNAKNTVYLKMNSLKPEDTAVYYCNTEWTSLSKSSLGGRYDHWGQGTQVTVSS | low polyreactivity |
| QVQLVESGGGLVQAGGSLRLSCAASGRTITKYVMGWYRHAPGKERELVAAITSSGSSTYYADSVKGRFTISRDNAKNTVYLQMNSLKPEDTAVYYCAARRGAPFARQYDYWGQGTQVTVSS | high polyreactivity |
